Data: patent US20240158477A1 (BIODURO JIANGSU, published 2024)

Columns and labels:
Experiment in all cases: cell-based or functional assay
[1] = target: SARS-CoV-2 S protein of variant B1.1.7
[2] = target: SARS-CoV-2 S protein of variant B.1.351
[3] = target: SARS-CoV-2 S protein of variant P.1
[4] = target: SARS-CoV-2 S protein of variant B.1.525

B1: Fc tagged nanobody VHH60 (Fc fusion)
chain: EVQLVESGGGLVQPGGSLRLSCAASGRTFRVNLMGWFRQAPGKGRELVASINGFDDITYYPDSVEGRFTISRDNAKRMVYLQMNSLRAEDTAVYYCAAYDSDYDGRLFNYWGQGTQVTVSSGSGGGGSGGGGS
B1 was tested, and the “IC50, pseudoviral entry assay (CaCO2 cells)” value (shortened to “IC50, pseudoviral entry assay”) [1] was 31.8 nM, the “IC50, pseudoviral entry assay” value [2] was 18.3 nM and the “IC50, pseudoviral entry assay” value [3] was 16.3 nM. For the same binder, the “IC50, pseudoviral entry assay” value [4] was 15 nM.
